The record followed here is the supplement of paper PMC10724198.

In the series the test system is Saccharomyces cerevisiae. The series can be described thus: protein stability index of tFT-peptide fusion (C-terminal peptide) (PSI (0-1 scale)); higher = more stable (slower turnover). To be noted: temperature: 30 C. On the procedure:
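MPS profiling in S. cerevisiae of the yeast C-terminome library: the last 12 aa of each annotated ORF are fused to the C-terminus of a sfGFP-mCherry timer, after a GGGS linker. Cells are FACS-sorted into 8 mCherry/sfGFP bins and deep-sequenced. PSI runs from 0 (unstable) to 1 (stable); wild type and das1Δ backgrounds, two technical replicates each.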

The mark [1] stands for this setting: genetic background: das1 deletion.

± gives the standard deviation of the averaged measurements.

Consider FRGKRYHTIKRQ [MSS51 C-terminal 12 aa], for which the protein stability index by setting is: under setting [1], 0.709 ± 0.0045; (genetic background: wild type) 0.643 ± 0.035.
In the case of FRLQEEQTNMRS [MSM1 C-terminal 12 aa], the protein stability index reads like this: under setting [1], 0.713 ± 0.02; (genetic background: wild type) 0.758 ± 0.02.
Taken in the same sequence, the figures for “FRQSWQIDIGTW [YAL037C-B C-terminal 12 aa]” were 0.7097 ± 0.0042 and 0.676 ± 0.017.
Consider “FRVVLNAQLNIQ [YOR108C-A C-terminal 12 aa]”, for which the protein stability index is, setting by setting: under setting [1], 0.69 ± 0.036; (genetic background: wild type) 0.674 ± 0.006.
Taken in the same sequence, the figures for FSAVSSWLSFIF [YNL046W C-terminal 12 aa] were 0.772 ± 0.033 and 0.725 ± 0.013.
For FSCHSFEYLARR [YDR401W C-terminal 12 aa] the same measures were 0.701 ± 0.013 and 0.677 ± 0.047.
FSDLFSYSKSLV [ENT5 C-terminal 12 aa]: the protein stability index under setting [1] turned out to be 0.705 ± 0.04 and the protein stability index (genetic background: wild type) worked out at 0.744 ± 0.013.
In the case of FSSSRDDISFDI [DRS2 C-terminal 12 aa], the protein stability index amounted to 0.7 ± 0.023 under setting [1] and 0.664 ± 0.0014 (genetic background: wild type).
Taken in the same sequence, the figures for FTDDSGTIKQEE [CMR1 C-terminal 12 aa] were 0.713 ± 0.0073 and 0.703 ± 0.026.
On to FTNEIINKLSTM [IDH1 C-terminal 12 aa], for which the protein stability index runs as follows: under setting [1], 0.692 ± 0.052; (genetic background: wild type) 0.5514 ± 0.0019.
Taken in the same sequence, the figures for FTVKANSQSESA [GRX7 C-terminal 12 aa] were 0.6758 ± 0.0034 and 0.694 ± 0.027.
Taken in the same sequence, the figures for “FVFVRYFNYADS [YCR081C-A C-terminal 12 aa]” were 0.631 ± 0.023 and 0.622 ± 0.011.
Taken in the same sequence, the figures for FVLKCIKDMYAK [IRC25 C-terminal 12 aa] were 0.682 ± 0.018 and 0.681 ± 0.017.
As to FVSSDPGLTQWL [HNT2 C-terminal 12 aa], the protein stability index is 0.745 ± 0.014 under setting [1] and 0.713 ± 0.0078 (genetic background: wild type).
Taken in the same sequence, the figures for FVVKEGLLKNRK [GTF1 C-terminal 12 aa] were 0.701 ± 0.027 and 0.7 ± 0.024.
Taken in the same sequence, the figures for FYDLWDAYEDDS [GDB1 C-terminal 12 aa] were 0.751 ± 0.028 and 0.704 ± 0.013.
Regarding FYPVTSEFSKNK [HOB2 C-terminal 12 aa], the protein stability index runs as follows: under setting [1], 0.7 ± 0.039; (genetic background: wild type) 0.767 ± 0.013.
For GAGAFAVGALLL [NCW2 C-terminal 12 aa] the same measures were 0.7034 ± 0.0019 and 0.687 ± 0.026.
Turning to GALALGLISYLL [FIT2 C-terminal 12 aa], the protein stability index under setting [1] was 0.695 ± 0.007 and the protein stability index (genetic background: wild type) came out at 0.686 ± 0.014.
Taken in the same sequence, the figures for GALPTTDPLFQW [YJL043W C-terminal 12 aa] were 0.7371 ± 0.0031 and 0.704 ± 0.0071.
For GAPSLYSYLLCL [IRC2 C-terminal 12 aa] the same measures were 0.684 ± 0.0082 and 0.487 ± 0.019.
The sequence GAVVAGAAALLL [TIP1 C-terminal 12 aa] came in with a protein stability index under setting [1] of 0.729 ± 0.024 and a protein stability index (genetic background: wild type) of 0.709 ± 0.032.
Taken in the same sequence, the figures for GCGEDLKKDILS [DOP1 C-terminal 12 aa] were 0.71 ± 0.017 and 0.668 ± 0.024.
As to GCVLGKLGYLKM [RAD33 C-terminal 12 aa], the protein stability index was 0.719 ± 0.024 under setting [1] and 0.619 ± 0.07 (genetic background: wild type).
Taken in the same sequence, the figures for GDDESRPRKMRR [BMS1 C-terminal 12 aa] were 0.678 ± 0.0091 and 0.674 ± 0.012.
GDDPYAEYFQDF [TPK2 C-terminal 12 aa]: the protein stability index stood at 0.735 ± 0.01 under setting [1] and 0.717 ± 0.039 (genetic background: wild type).
For GEAVPEPVEEES [SEC27 C-terminal 12 aa] the same measures were 0.698 ± 0.013 and 0.691 ± 0.043.
Consider “GFRPECLYYYIK [YPR016W-A C-terminal 12 aa]”, for which the protein stability index reads like this: under setting [1], 0.5801 ± 0.0036; (genetic background: wild type) 0.564 ± 0.024.
For GGPPKVNKDIIS [HAT2 C-terminal 12 aa] the same measures were 0.708 ± 0.035 and 0.6995 ± 0.006.
Taken in the same sequence, the figures for GIGFFAVCFERD [RCM1 C-terminal 12 aa] were 0.6906 ± 0.0028 and 0.664 ± 0.012.
For GKCTSSKFKLSS [KRE6 C-terminal 12 aa] the same measures were 0.71 ± 0.026 and 0.619 ± 0.024.
Take GKNGARLSEIGW [SNZ2 C-terminal 12 aa]: the protein stability index runs as follows: under setting [1], 0.7224 ± 0.0061; (genetic background: wild type) 0.691 ± 0.025.
For GKNKKKSKHSKK [PRP43 C-terminal 12 aa] the same measures were 0.702 ± 0.057 and 0.651 ± 0.0029.
GLDPEELEDLVT [PDS1 C-terminal 12 aa]: the protein stability index turned out to be 0.688 ± 0.011 under setting [1] and 0.7032 ± 0.0028 (genetic background: wild type).
Taken in the same sequence, the figures for GLEFVASRSASS [MDH2 C-terminal 12 aa] were 0.692 ± 0.014 and 0.729 ± 0.033.
In turn, GLNKNMLKKIIK [YPR084W C-terminal 12 aa] came in with a protein stability index under setting [1] of 0.715 ± 0.032 and a protein stability index (genetic background: wild type) of 0.668 ± 0.03.
For GLQNRLARNNEK [MRP4 C-terminal 12 aa] the same measures were 0.734 ± 0.018 and 0.6607 ± 0.0019.
As for GLQVMNEMKQRW [ECM25 C-terminal 12 aa], the protein stability index is, setting by setting: under setting [1], 0.7091 ± 0.0069; (genetic background: wild type) 0.724 ± 0.053.
On to GMLGLSALLGGE [SEC11 C-terminal 12 aa], for which the protein stability index reads like this: under setting [1], 0.687 ± 0.019; (genetic background: wild type) 0.678 ± 0.016.
Take GNLPQPVFQPLL [VHR1 C-terminal 12 aa]: the protein stability index under setting [1] is 0.701 ± 0.0019 and the protein stability index (genetic background: wild type) worked out at 0.6795 ± 0.0033.
On to GQLTTDEETCIE [RTR2 C-terminal 12 aa], for which the protein stability index worked out at 0.6793 ± 0.0044 under setting [1] and 0.726 ± 0.034 (genetic background: wild type).
With GRDCISKRAILE [IMP2 C-terminal 12 aa], the protein stability index stood at 0.7067 ± 0.0024 under setting [1] and 0.6702 ± 0.004 (genetic background: wild type).
Regarding GRGLLGCRIQEL [NAS2 C-terminal 12 aa], the protein stability index runs as follows: under setting [1], 0.703 ± 0.012; (genetic background: wild type) 0.681 ± 0.032.
For GSESILTAKQPI [OCA2 C-terminal 12 aa] the same measures were 0.706 ± 0.0075 and 0.685 ± 0.009.
For GSNNRGYTLIDL [ENT1 C-terminal 12 aa] the same measures were 0.698 ± 0.015 and 0.736 ± 0.029.
Take GTDLLKENRNCS [YML096W C-terminal 12 aa]: the protein stability index amounted to 0.669 ± 0.0067 under setting [1] and 0.6895 ± 0.0012 (genetic background: wild type).
For the sequence GTVDEIIKFLSE [YTA7 C-terminal 12 aa], the protein stability index reads like this: under setting [1], 0.725 ± 0.023; (genetic background: wild type) 0.736 ± 0.066.
For GVLLILASALFT [ZRT3 C-terminal 12 aa] the same measures were 0.3294 ± 0.0016 and 0.341 ± 0.0088.
In the case of GVSTGYEKIRYI [FUI1 C-terminal 12 aa], the protein stability index reads like this: under setting [1], 0.734 ± 0.012; (genetic background: wild type) 0.31 ± 0.025.
Consider GVVKFNSEHYRD [SAP185 C-terminal 12 aa], for which the protein stability index worked out at 0.721 ± 0.045 under setting [1] and 0.668 ± 0.034 (genetic background: wild type).
